{
  "source": "the supplement of paper PMC9732359",
  "note": "± gives the uncertainty stated by the source.",
  "data": [
    {"test": "protein stability index of a GFP-peptide fusion (yeast GPS) (PSI 1-4); higher = more stable; sorted into four equal gates, so the index is relative within each strain", "conditions": "doa10∆", "outline": "(§1)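 Plasmids isolated from each sorting gate were PCR-amplified and Illumina-sequenced, and barcodes assigned the reads to strains. The gates, four of equal size, were set by GFP/Cherry fluorescence ratio on mid-log cultures in leucine-free medium. These cultures were yeast carrying a pooled library of tiled 17-residue yeast protein peptides fused downstream of GFP on a plasmid that also expresses Cherry. The protein stability index is the sum of every gate's read frequency times its gate number.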", "values": [
      {"sequence": "SVEWMKVSPSMCGVIVK [SIN4]", "protein stability index": "1.74 ± 0.055"},
      {"sequence": "SVHLIECYKQLFLTAPD [YCS4]", "protein stability index": "1.52 ± 0.24"}
    ]},
    {"test": "protein stability index of a GFP-peptide fusion (yeast GPS) (PSI 1-4); higher = more stable; sorted into four equal gates, so the index is relative within each strain", "conditions": "pdr5∆", "outline": "as §1", "values": [
      {"sequence": "SNGGGKVKPIRGFCQRL [RPO31]", "protein stability index": "3.12 ± 0.11"},
      {"sequence": "SNGNNLPLNKPRLEKLI [RGR1]", "protein stability index": "3.36 ± 0.056"},
      {"sequence": "SNIITKSLVQYIELLPN [DIS3]", "protein stability index": "2.08 ± 0.065"},
      {"sequence": "SNIPRGSVIQTHIAESA [MCD1]", "protein stability index": "2.88 ± 0.084"},
      {"sequence": "SNLEKLPKYKEKKAASA [MED7]", "protein stability index": "2.82 ± 0.06"},
      {"sequence": "SNLSPDLKFKRHKNKHI [DSN1]", "protein stability index": "2.58 ± 0.15"},
      {"sequence": "SNLTIYPIYELLMSCPR [GRR1]", "protein stability index": "1.75 ± 0.071"},
      {"sequence": "SNMILGSVELSTGDYTF [YML103C/NUP188]", "protein stability index": "2.35 ± 0.065"},
      {"sequence": "SNMQKSLLPYYHLTKAV [RPN3]", "protein stability index": "1.87 ± 0.044"},
      {"sequence": "SNNITSGLNRAISTGNW [RET1]", "protein stability index": "3.37 ± 0.11"},
      {"sequence": "SNQFKRSLATAVATPKA [COR1]", "protein stability index": "1.75 ± 0.049"},
      {"sequence": "SNQRFKDLQWLEFARIT [SIN4]", "protein stability index": "3.13 ± 0.057"},
      {"sequence": "SNRCIVFSKKEPFPHSK [CSN12]", "protein stability index": "2.85 ± 0.047"},
      {"sequence": "SNSDNCPEEFAESMCQE [SNF5]", "protein stability index": "3.33 ± 0.069"},
      {"sequence": "SNTYKEERSNNLLTPQP [MCD1]", "protein stability index": "3.18 ± 0.094"},
      {"sequence": "SNVFGSNNSTTNTFGSN [YJL041W/NSP1]", "protein stability index": "3.44 ± 0.076"},
      {"sequence": "SNYSRTMTISHLLLGFQ [YJL039C/NUP192]", "protein stability index": "1.69 ± 0.044"},
      {"sequence": "SPHYNSQKQTLIKKPLT [SSN3]", "protein stability index": "2.87 ± 0.056"},
      {"sequence": "SPISDSRDELIRLAKTL [RPN10]", "protein stability index": "1.77 ± 0.084"},
      {"sequence": "SPIVNVLEDVYRCFAQL [RRI2]", "protein stability index": "3.19 ± 0.17"},
      {"sequence": "SPMGNAYSMGAQNQGGQ [PGD1]", "protein stability index": "2.91 ± 0.069"},
      {"sequence": "SPMLYKVPDISSDGQLK [BRR2]", "protein stability index": "2.56 ± 0.045"},
      {"sequence": "SPNPTLQPVIPGGAASK [SNF5]", "protein stability index": "3.24 ± 0.082"},
      {"sequence": "SPSYSPTSPSYSPTSPS [RPO21]", "protein stability index": "2.33 ± 0.03"},
      {"sequence": "SPVSSVHTANFSERGSN [MED2]", "protein stability index": "2.82 ± 0.068"},
      {"sequence": "SPVYDVDPRIINSENDY [NUT1]", "protein stability index": "3.02 ± 0.074"},
      {"sequence": "SPYNADFDGDEMNLHVP [RPO21]", "protein stability index": "3.27 ± 0.068"},
      {"sequence": "SQCRLHELREKERISVA [PRE2]", "protein stability index": "2.59 ± 0.097"},
      {"sequence": "SQEREFSLLVKAEIPPE [SIN4]", "protein stability index": "2.98 ± 0.072"},
      {"sequence": "SQESINQKLALVIKSGK [RPL30]", "protein stability index": "2.65 ± 0.13"},
      {"sequence": "SQFNGSGNGSNPNTNTN [PGD1]", "protein stability index": "2.68 ± 0.068"},
      {"sequence": "SQHGQGNNPSWVNNPKK [YDL088C/ASM4]", "protein stability index": "3.52 ± 0.16"},
      {"sequence": "SQKAKLMTFNAETKSYD [YLR335W/NUP2]", "protein stability index": "2.27 ± 0.046"},
      {"sequence": "SQQNIVPNSSDQAELPN [SNF2]", "protein stability index": "2.67 ± 0.079"},
      {"sequence": "SQSSNANICLTFLESIN [SIN4]", "protein stability index": "2.61 ± 0.054"},
      {"sequence": "SQTMAETYVASYVVPRL [ECM29]", "protein stability index": "1.82 ± 0.049"},
      {"sequence": "SQTTQLAGMDVEDALDK [FAS2]", "protein stability index": "3.47 ± 0.11"},
      {"sequence": "SQWNDSSIDKIEDRDFL [SIR3]", "protein stability index": "3.21 ± 0.27"},
      {"sequence": "SQYSTMVNIGLHNLNEY [RGR1]", "protein stability index": "2.09 ± 0.1"},
      {"sequence": "SRDLDISSSTQCLRFLK [POP6]", "protein stability index": "2.24 ± 0.05"},
      {"sequence": "SRGIVIGSGAMSPLECR [RPP1]", "protein stability index": "2.34 ± 0.048"},
      {"sequence": "SRSRSSIRSISPAGKYK [ESC2]", "protein stability index": "2.96 ± 0.099"},
      {"sequence": "SRSTEKKNDMNTSAKNK [SIR4]", "protein stability index": "2.66 ± 0.05"},
      {"sequence": "SSDGALCMDSSYIGTII [POP1]", "protein stability index": "2.71 ± 0.083"},
      {"sequence": "SSEILSYLSNSLDTSAS [YML103C/NUP188]", "protein stability index": "2.7 ± 0.069"},
      {"sequence": "SSENNQIILAYIKYNIL [SRP68]", "protein stability index": "2.82 ± 0.074"},
      {"sequence": "SSFSKKTLTEEVTKSSH [YIL149C/MLP2]", "protein stability index": "2.88 ± 0.058"},
      {"sequence": "SSIQESLLSLVGHLSIL [ECM29]", "protein stability index": "1.75 ± 0.043"},
      {"sequence": "SSISVMGENEKPDVTYA [RPT3]", "protein stability index": "3.25 ± 0.1"},
      {"sequence": "SSLALVFALHKYKPTPL [SMC4]", "protein stability index": "2.18 ± 0.074"},
      {"sequence": "SSLEELLLKDQQTAKKL [ECM29]", "protein stability index": "2.99 ± 0.077"},
      {"sequence": "SSLLSRLISSKMPGGFT [FAS2]", "protein stability index": "2.41 ± 0.08"},
      {"sequence": "SSLRNQELLNAETLCFT [RPN3]", "protein stability index": "3.02 ± 0.15"},
      {"sequence": "SSNIVNENDSQAIITER [YIL149C/MLP2]", "protein stability index": "2.93 ± 0.086"},
      {"sequence": "SSNLYETIIEADKSLPS [YJR042W/NUP85]", "protein stability index": "2.97 ± 0.052"},
      {"sequence": "SSNPQSAYVKAFYQKGN [SMC1]", "protein stability index": "1.98 ± 0.047"},
      {"sequence": "SSNSQQSTPQPDDMVEI [ITC1]", "protein stability index": "2.74 ± 0.059"},
      {"sequence": "SSNVQQPQQQLGDMENN [RTT102]", "protein stability index": "3.29 ± 0.12"},
      {"sequence": "SSRFIKGGSLYGLGLIY [RPN2]", "protein stability index": "2.1 ± 0.088"},
      {"sequence": "SSRLEFVKGISRDIKAL [YML103C/NUP188]", "protein stability index": "1.81 ± 0.057"},
      {"sequence": "SSTDFSTCIVSLIRNNL [ECM29]", "protein stability index": "2.99 ± 0.092"},
      {"sequence": "SSTITGDVVLAAAYSHE [RPL5]", "protein stability index": "2.56 ± 0.06"},
      {"sequence": "SSTKPPGSVNSAAKYKD [NUT1]", "protein stability index": "2.64 ± 0.061"},
      {"sequence": "SSVNEDTFLPPPPPPPS [PRP8]", "protein stability index": "2.72 ± 0.04"},
      {"sequence": "STAIKSLVALGIDPQDL [CDC53]", "protein stability index": "2.67 ± 0.066"},
      {"sequence": "STATRNVTMIDDLIHFT [COR1]", "protein stability index": "2.81 ± 0.092"},
      {"sequence": "STGDYTFTIQLLKLTKV [YML103C/NUP188]", "protein stability index": "2.92 ± 0.13"},
      {"sequence": "STIPTRENGKGGQIAHI [ROX3]", "protein stability index": "3.17 ± 0.092"},
      {"sequence": "STKSNKTRNPLTHSTPK [RPL8A]", "protein stability index": "1.95 ± 0.14"},
      {"sequence": "STLQHFQETLDSTVVYP [MED8]", "protein stability index": "3.11 ± 0.055"},
      {"sequence": "STSFSFNAPATGNGTTT [YOR098C/NUP1]", "protein stability index": "2.97 ± 0.037"},
      {"sequence": "STSLGIPDFRSSEGFYS [SIR2]", "protein stability index": "1.62 ± 0.089"},
      {"sequence": "STVKKKDIVNISIPKTC [REC8]", "protein stability index": "2.41 ± 0.063"},
      {"sequence": "SVALHRHSNALVDILPP [RPT3]", "protein stability index": "2.1 ± 0.056"},
      {"sequence": "SVANTPSEIPDAHKAEQ [SWI3]", "protein stability index": "3.25 ± 0.065"},
      {"sequence": "SVDDVLSALDHIGHSAL [DPB4]", "protein stability index": "3.53 ± 0.18"}
    ]}
  ]
}
